From article PMC10241913 (Nature Communications, 2023) come the findings set out here.

What all share (details): both partners purified
One experiment deals with T1, p97-wt (1–806) (UniProt P55072 1-806).
T1 construct: p97/VCP, residues 1-806; also called VCP; p97-fl; source: E. coli BL21 DE3 (T1r), purified (Ni-NTA, anion exchange)
Briefly: fluorescence polarisation; fluorescence anisotropy; Atto594-labeled UBXD1 proteins, p97 constructs titrated; 50 mM NaKPi pH 7.5, 25 °C; all fitted with stoichiometry n = 1.

A further experiment has as its target T2, p97-ΔC (1–766) (UniProt P55072 1-766).
T2 construct: p97/VCP, residues 1-766; source: E. coli BL21 DE3 (T1r), purified (Ni-NTA, anion exchange)
The description is as above.

The next experiment addresses T3, p97-ΔD2-C (1–480) (UniProt P55072 1-480).
T3 construct: p97/VCP, residues 1-480; The pull-down methods give the concentration of the p97 variant as hexamer; also called ND1L; source: E. coli BL21 DE3 (T1r), purified (Ni-NTA, anion exchange)
The experiment is described as above.

In experiment [1] the target is T4, ubiquitin-GST fusion protein (Ub-GST) (UniProt P0CG48 1-76).
T4 construct: source: E. coli BL21 DE3 (T1r), purified
The experiment is described as follows: pull-down; screen: 25 μM ubiquitin-GST, 1 μM p97 (hexamer) and equal amounts of UBXD1 variant (released from GSH beads by PreScission) with GSH beads, 30 min, 4 °C, IP buffer.

T2 sequence (P55072 1-766, stated change not applied): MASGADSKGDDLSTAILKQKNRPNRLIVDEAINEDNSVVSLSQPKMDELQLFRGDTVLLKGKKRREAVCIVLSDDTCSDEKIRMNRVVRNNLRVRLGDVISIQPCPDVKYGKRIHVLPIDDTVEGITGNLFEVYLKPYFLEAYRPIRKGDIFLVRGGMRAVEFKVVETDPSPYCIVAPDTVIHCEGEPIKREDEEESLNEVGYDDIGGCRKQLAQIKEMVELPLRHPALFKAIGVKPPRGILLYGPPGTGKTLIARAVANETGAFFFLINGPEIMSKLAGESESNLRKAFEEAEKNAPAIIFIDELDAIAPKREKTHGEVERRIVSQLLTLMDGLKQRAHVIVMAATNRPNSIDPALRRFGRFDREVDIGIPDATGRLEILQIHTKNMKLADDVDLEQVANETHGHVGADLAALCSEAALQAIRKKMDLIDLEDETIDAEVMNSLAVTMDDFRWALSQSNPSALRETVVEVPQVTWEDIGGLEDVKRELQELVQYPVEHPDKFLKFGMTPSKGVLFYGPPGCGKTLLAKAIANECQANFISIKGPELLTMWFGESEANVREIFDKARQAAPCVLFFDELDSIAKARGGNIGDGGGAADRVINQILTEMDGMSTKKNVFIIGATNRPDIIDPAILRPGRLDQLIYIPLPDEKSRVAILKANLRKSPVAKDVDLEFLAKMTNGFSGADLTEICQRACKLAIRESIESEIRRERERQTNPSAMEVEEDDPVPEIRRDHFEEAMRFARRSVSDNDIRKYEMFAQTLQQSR
T3 sequence (P55072 1-480, stated change not applied): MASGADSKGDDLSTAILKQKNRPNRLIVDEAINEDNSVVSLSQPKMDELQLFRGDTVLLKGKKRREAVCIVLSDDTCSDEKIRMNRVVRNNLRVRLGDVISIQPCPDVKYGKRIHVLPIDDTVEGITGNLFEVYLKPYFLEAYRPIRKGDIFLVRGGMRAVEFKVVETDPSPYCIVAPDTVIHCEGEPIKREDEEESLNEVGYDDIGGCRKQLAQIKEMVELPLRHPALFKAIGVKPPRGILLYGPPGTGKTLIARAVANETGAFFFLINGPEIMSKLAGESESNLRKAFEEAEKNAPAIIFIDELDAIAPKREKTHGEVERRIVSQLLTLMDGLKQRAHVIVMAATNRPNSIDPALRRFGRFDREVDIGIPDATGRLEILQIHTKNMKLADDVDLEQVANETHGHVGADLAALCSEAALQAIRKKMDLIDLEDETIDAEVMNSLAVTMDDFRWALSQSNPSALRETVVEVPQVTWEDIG
T1 sequence (P55072 whole entry, the tested form may be a part): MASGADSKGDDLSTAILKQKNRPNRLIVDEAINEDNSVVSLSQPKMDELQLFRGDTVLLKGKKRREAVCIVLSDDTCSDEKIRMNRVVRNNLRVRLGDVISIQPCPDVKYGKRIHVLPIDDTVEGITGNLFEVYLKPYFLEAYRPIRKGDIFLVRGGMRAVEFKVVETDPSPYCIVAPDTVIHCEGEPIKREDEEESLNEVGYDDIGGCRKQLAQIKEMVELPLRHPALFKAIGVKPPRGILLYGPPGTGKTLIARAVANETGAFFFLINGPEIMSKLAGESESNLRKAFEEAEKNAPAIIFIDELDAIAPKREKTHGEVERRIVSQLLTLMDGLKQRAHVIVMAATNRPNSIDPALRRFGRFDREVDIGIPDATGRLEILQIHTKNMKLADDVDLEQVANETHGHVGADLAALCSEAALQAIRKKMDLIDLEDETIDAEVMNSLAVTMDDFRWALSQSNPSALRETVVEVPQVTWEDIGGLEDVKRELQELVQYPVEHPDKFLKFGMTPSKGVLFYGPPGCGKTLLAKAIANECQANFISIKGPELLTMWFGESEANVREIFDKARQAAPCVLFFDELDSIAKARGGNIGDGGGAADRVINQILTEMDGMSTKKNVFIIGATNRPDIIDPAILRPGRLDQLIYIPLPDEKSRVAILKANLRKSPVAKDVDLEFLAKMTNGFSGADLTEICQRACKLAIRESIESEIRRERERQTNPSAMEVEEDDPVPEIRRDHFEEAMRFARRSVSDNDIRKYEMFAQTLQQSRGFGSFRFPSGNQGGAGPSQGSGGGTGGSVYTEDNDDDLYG

B1: UBXD1-eUBX-C (269–441), for fluorescence anisotropy (domain or fragment, human, UniProt Q9BZV1 269-441, looked up)
chain: KLDRQRRVFQPSPLASQFELPGDFFNLTAEEIKREQRLRSEAVERLSVLRTKAMREKEEQRGLRKYNYTLLRVRLPDGCLLQGTFYARERLGAVYGFVREALQSDWLPFELLASGGQKLSEDENLALNECGLVPSALLTFSWDMAVLEDIKAAGAEPDSILKPELLSAIEKLL
modifications: Atto594 (NHS ester; the UBXD1 proteins were labeled for anisotropy)
notes: also called eUBX-C domain; not shown: GST, N-terminal, cleaved
On to B1, for which the dissociation constant Kd in the experiment with p97-wt (1–806) amounted to 131 ± 14 µM.

B2: UBXD1-ΔUBX-C (1–332), recombinant, for fluorescence anisotropy (domain or fragment, human, UniProt Q9BZV1 1-332, looked up)
chain: MKKFFQEFKADIKFKSAGPGQKLKESVGEKAHKEKPNQPAPRPPRQGPTNEAQMAAAAALARLEQKQSRAWGPTSQDTIRNQVRKELQAEATVSGSPEAPGTNVVSEPREEGSAHLAVPGVYFTCPLTGATLRKDQRDACIKEAILLHFSTDPVAASIMKIYTFNKDQDRVKLGVDTIAKYLDNIHLHPEEEKYRKIKLQNKVFQERINCLEGTHEFFEAIGFQKVLLPAQDQEDPEEFYVLSETTLAQPQSLERHKEQLLAAEPVRAKLDRQRRVFQPSPLASQFELPGDFFNLTAEEIKREQRLRSEAVERLSVLRTKAMREKEEQRGLR
modifications: Atto594 (NHS ester; the UBXD1 proteins were labeled for anisotropy)
notes: also called UBX deletion mutant of UBXD1; not shown: GST, N-terminal, cleaved
Consider B2, for which the dissociation constant Kd with p97-ΔC (1–766) came to 18.6 ± 0.7 µM; in the experiment with p97-ΔD2-C (1–480), 26 ± 2 µM.

B3: UBXD1 Q278A/F286A/L288A (full length, recombinant) (natural protein, human, UniProt Q9BZV1 1-441, looked up)
chain: MKKFFQEFKADIKFKSAGPGQKLKESVGEKAHKEKPNQPAPRPPRQGPTNEAQMAAAAALARLEQKQSRAWGPTSQDTIRNQVRKELQAEATVSGSPEAPGTNVVSEPREEGSAHLAVPGVYFTCPLTGATLRKDQRDACIKEAILLHFSTDPVAASIMKIYTFNKDQDRVKLGVDTIAKYLDNIHLHPEEEKYRKIKLQNKVFQERINCLEGTHEFFEAIGFQKVLLPAQDQEDPEEFYVLSETTLAQPQSLERHKEQLLAAEPVRAKLDRQRRVFAPSPLASQAEAPGDFFNLTAEEIKREQRLRSEAVERLSVLRTKAMREKEEQRGLRKYNYTLLRVRLPDGCLLQGTFYARERLGAVYGFVREALQSDWLPFELLASGGQKLSEDENLALNECGLVPSALLTFSWDMAVLEDIKAAGAEPDSILKPELLSAIEKLL
notes: UBXD1 (UBXN6), human, mutant in the context of recombinant UBXD1-fl
As to B3, in experiment [1], the binding result is reported as “binds”.

B4: UBXD1-wt (1–441), Atto594-labeled for fluorescence anisotropy with p97 (natural protein, human, UniProt Q9BZV1 1-441, looked up)
chain: MKKFFQEFKADIKFKSAGPGQKLKESVGEKAHKEKPNQPAPRPPRQGPTNEAQMAAAAALARLEQKQSRAWGPTSQDTIRNQVRKELQAEATVSGSPEAPGTNVVSEPREEGSAHLAVPGVYFTCPLTGATLRKDQRDACIKEAILLHFSTDPVAASIMKIYTFNKDQDRVKLGVDTIAKYLDNIHLHPEEEKYRKIKLQNKVFQERINCLEGTHEFFEAIGFQKVLLPAQDQEDPEEFYVLSETTLAQPQSLERHKEQLLAAEPVRAKLDRQRRVFQPSPLASQFELPGDFFNLTAEEIKREQRLRSEAVERLSVLRTKAMREKEEQRGLRKYNYTLLRVRLPDGCLLQGTFYARERLGAVYGFVREALQSDWLPFELLASGGQKLSEDENLALNECGLVPSALLTFSWDMAVLEDIKAAGAEPDSILKPELLSAIEKLL
modifications: Atto594 (NHS ester, ratio 1:1.2)
notes: not shown: GST, N-terminal, cleaved
As for B4, the Kd amounted to 1.64 µM with p97-wt (1–806) and 11.9 ± 0.2 µM with p97-ΔC (1–766).

B5: UBXD1-VIMx (1–441, DI11/12AA, RL62/63AA) (natural protein, human, UniProt Q9BZV1 1-441, looked up)
chain: MKKFFQEFKAAAKFKSAGPGQKLKESVGEKAHKEKPNQPAPRPPRQGPTNEAQMAAAAALAAAEQKQSRAWGPTSQDTIRNQVRKELQAEATVSGSPEAPGTNVVSEPREEGSAHLAVPGVYFTCPLTGATLRKDQRDACIKEAILLHFSTDPVAASIMKIYTFNKDQDRVKLGVDTIAKYLDNIHLHPEEEKYRKIKLQNKVFQERINCLEGTHEFFEAIGFQKVLLPAQDQEDPEEFYVLSETTLAQPQSLERHKEQLLAAEPVRAKLDRQRRVFQPSPLASQFELPGDFFNLTAEEIKREQRLRSEAVERLSVLRTKAMREKEEQRGLRKYNYTLLRVRLPDGCLLQGTFYARERLGAVYGFVREALQSDWLPFELLASGGQKLSEDENLALNECGLVPSALLTFSWDMAVLEDIKAAGAEPDSILKPELLSAIEKLL
modifications: Atto594 (NHS ester; the UBXD1 proteins were labeled for anisotropy)
notes: also called UBXD1-VIMx mutant; not shown: GST, N-terminal, cleaved
In the case of B5, the Kd is 87 ± 1 µM in the experiment with p97-ΔC (1–766) and 466 ± 9 µM with p97-ΔD2-C (1–480).

B6: UBXD1 R305A/R307A/V316A (full length, recombinant) (natural protein, human, UniProt Q9BZV1 1-441, looked up)
chain: MKKFFQEFKADIKFKSAGPGQKLKESVGEKAHKEKPNQPAPRPPRQGPTNEAQMAAAAALARLEQKQSRAWGPTSQDTIRNQVRKELQAEATVSGSPEAPGTNVVSEPREEGSAHLAVPGVYFTCPLTGATLRKDQRDACIKEAILLHFSTDPVAASIMKIYTFNKDQDRVKLGVDTIAKYLDNIHLHPEEEKYRKIKLQNKVFQERINCLEGTHEFFEAIGFQKVLLPAQDQEDPEEFYVLSETTLAQPQSLERHKEQLLAAEPVRAKLDRQRRVFQPSPLASQFELPGDFFNLTAEEIKREQALASEAVERLSALRTKAMREKEEQRGLRKYNYTLLRVRLPDGCLLQGTFYARERLGAVYGFVREALQSDWLPFELLASGGQKLSEDENLALNECGLVPSALLTFSWDMAVLEDIKAAGAEPDSILKPELLSAIEKLL
notes: as for B3
For B6, in experiment [1], the binding result is on record as “binds”.

B7: UBXD1 R305A (full length, recombinant) (natural protein, human, UniProt Q9BZV1 1-441, looked up)
chain: MKKFFQEFKADIKFKSAGPGQKLKESVGEKAHKEKPNQPAPRPPRQGPTNEAQMAAAAALARLEQKQSRAWGPTSQDTIRNQVRKELQAEATVSGSPEAPGTNVVSEPREEGSAHLAVPGVYFTCPLTGATLRKDQRDACIKEAILLHFSTDPVAASIMKIYTFNKDQDRVKLGVDTIAKYLDNIHLHPEEEKYRKIKLQNKVFQERINCLEGTHEFFEAIGFQKVLLPAQDQEDPEEFYVLSETTLAQPQSLERHKEQLLAAEPVRAKLDRQRRVFQPSPLASQFELPGDFFNLTAEEIKREQALRSEAVERLSVLRTKAMREKEEQRGLRKYNYTLLRVRLPDGCLLQGTFYARERLGAVYGFVREALQSDWLPFELLASGGQKLSEDENLALNECGLVPSALLTFSWDMAVLEDIKAAGAEPDSILKPELLSAIEKLL
notes: as for B3
For B7, the binding result in experiment [1] is on record as “binds”.

B8: UBXD1 R307A (full length, recombinant) (natural protein, human, UniProt Q9BZV1 1-441, looked up)
chain: MKKFFQEFKADIKFKSAGPGQKLKESVGEKAHKEKPNQPAPRPPRQGPTNEAQMAAAAALARLEQKQSRAWGPTSQDTIRNQVRKELQAEATVSGSPEAPGTNVVSEPREEGSAHLAVPGVYFTCPLTGATLRKDQRDACIKEAILLHFSTDPVAASIMKIYTFNKDQDRVKLGVDTIAKYLDNIHLHPEEEKYRKIKLQNKVFQERINCLEGTHEFFEAIGFQKVLLPAQDQEDPEEFYVLSETTLAQPQSLERHKEQLLAAEPVRAKLDRQRRVFQPSPLASQFELPGDFFNLTAEEIKREQRLASEAVERLSVLRTKAMREKEEQRGLRKYNYTLLRVRLPDGCLLQGTFYARERLGAVYGFVREALQSDWLPFELLASGGQKLSEDENLALNECGLVPSALLTFSWDMAVLEDIKAAGAEPDSILKPELLSAIEKLL
notes: as for B3
For B8, the binding result in experiment [1] is given as “binds”.

B9: UBXD1 R274A (full length, recombinant) (natural protein, human, UniProt Q9BZV1 1-441, looked up)
chain: MKKFFQEFKADIKFKSAGPGQKLKESVGEKAHKEKPNQPAPRPPRQGPTNEAQMAAAAALARLEQKQSRAWGPTSQDTIRNQVRKELQAEATVSGSPEAPGTNVVSEPREEGSAHLAVPGVYFTCPLTGATLRKDQRDACIKEAILLHFSTDPVAASIMKIYTFNKDQDRVKLGVDTIAKYLDNIHLHPEEEKYRKIKLQNKVFQERINCLEGTHEFFEAIGFQKVLLPAQDQEDPEEFYVLSETTLAQPQSLERHKEQLLAAEPVRAKLDRQARVFQPSPLASQFELPGDFFNLTAEEIKREQRLRSEAVERLSVLRTKAMREKEEQRGLRKYNYTLLRVRLPDGCLLQGTFYARERLGAVYGFVREALQSDWLPFELLASGGQKLSEDENLALNECGLVPSALLTFSWDMAVLEDIKAAGAEPDSILKPELLSAIEKLL
notes: as for B3
Consider B9, for which the binding result in experiment [1] is “binds”.
